The record followed here is paper PMC7804408, “Functional cooperativity between the trigger factor chaperone and the ClpXP proteolytic complex” (Nature Communications, 2021).

B1: trigger factor (TF) (natural protein, E. coli, UniProt P0A850 1-432, looked up)
chain: MQVSVETTQGLGRRVTITIAADSIETAVKSELVNVAKKVRIDGFRKGKVPMNIVAQRYGASVRQDVLGDLMSRNFIDAIIKEKINPAGAPTYVPGEYKLGEDFTYSVEFEVYPEVELQGLEAIEVEKPIVEVTDADVDGMLDTLRKQQATWKEKDGAVEAEDRVTIDFTGSVDGEEFEGGKASDFVLAMGQGRMIPGFEDGIKGHKAGEEFTIDVTFPEEYHAENLKGKAAKFAINLKKVEERELPELTAEFIKRFGVEDGSVEGLRAEVRKNMERELKSAIRNRVKSQAIEGLVKANDIDVPAALIDSEIDVLRRQAAQRFGGNEKQALELPRELFEEQAKRRVVVGLLLGEVIRTNELKADEERVKGLIEEMASAYEDPKEVIEFYSKNKELMDNMRNVALEEQAVEAVLAKAKVTEKETTFNELMNQQA
B2: λ phage replication protein λO (natural protein, UniProt P03688 1-333, looked up)
chain: MTNTAKILNFGRGNFAGQERNVADLDDGYARLSNMLLEAYSGADLTKRQFKVLLAILRKTYGWNKPMDRITDSQLSEITKLPVKRCNEAKLELVRMNIIKQQGGMFGPNKNISEWCIPQNEGKSPKTRDKTSLKLGDCYPSKQGDTKDTITKEKRKDYSSENSGESSDQPENDLSVVKPDAAIQSGSKWGTAEDLTAAEWMFDMVKTIAPSARKPNFAGWANDIRLMRERDGRNHRDMCVLFRWACQDNFWSGNVLSPAKLRDKWTQLEINRNKQQAGVTASKPKLDLTNTDWIYGVDLKTSPHRWLTLTVSRCVGSPTTCRNSTTKSRRYSR
notes: replication protein O of phage λ
B3: zinc-binding domain (ZBD) of ClpX (domain or fragment, E. coli)
chain: TDKRKDGSGKLLYCSFCGKSQHEVRKLIAGPSVYICDECVDLCNDIIREEIKEVAPHRER
notes: Tag removal rests on the words 'purified by the same procedure as TFN'; Isotopically labelled in one NMR experiment; also called ClpX ZBD; ZBD dimer; source: E. coli BL21(DE3), purified (Ni Sepharose, gel filtration; same procedure as TFN; 100 μM ZnCl2 added before size exclusion)
B4: ClpX (enzyme)
chain: not shown
notes: E. coli ClpX unfoldase (N-terminal ZBD and C-terminal AAA+ domain); expressed from pProEXHTb ClpX; the SPR running buffer held EDTA and no nucleotide, and the oligomeric state in that assay was not measured; also called WT ClpX; full-length ClpX; source: E. coli BL21(DE3), purified the same way as TF (Ni-NTA; His-tag removed with TEV protease)

Experiment [1] concerns the target HV-ClpX (N-terminally tagged ClpX) (E. coli, UniProt P0A6H1 1-424). Briefly: cell-based or functional assay.
In experiment [2] the target is B1. As to the kind of experiment: SPR; TF immobilised on a CM5 chip by amine coupling, analytes injected at 20 μL/min for 90 s; Biacore X, 22 °C; 10 mM HEPES pH 7.5, 150 mM NaCl, 3 mM EDTA, 0.005% P20; steady-state response against concentration, one-site Langmuir model; apparent Kd for ClpX. Conditions: both partners purified. Background: In SPR one partner is held on a chip, and binding of the other changes the refractive index at the surface.

A value given as a limit tells only on which side of the number the result lay.

Sequence of HV-ClpX (N-terminally tagged ClpX) (P0A6H1 whole entry): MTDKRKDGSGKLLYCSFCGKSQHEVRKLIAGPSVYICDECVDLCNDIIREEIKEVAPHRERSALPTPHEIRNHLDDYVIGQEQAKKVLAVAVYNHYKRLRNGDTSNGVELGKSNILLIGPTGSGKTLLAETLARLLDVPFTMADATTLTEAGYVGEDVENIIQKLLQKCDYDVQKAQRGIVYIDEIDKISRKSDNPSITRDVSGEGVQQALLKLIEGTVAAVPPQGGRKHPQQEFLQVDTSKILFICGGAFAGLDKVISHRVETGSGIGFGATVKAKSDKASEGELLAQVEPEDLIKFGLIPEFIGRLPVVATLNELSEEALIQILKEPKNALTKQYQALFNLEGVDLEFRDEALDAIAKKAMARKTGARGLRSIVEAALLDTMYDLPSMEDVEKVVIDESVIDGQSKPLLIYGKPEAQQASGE

Take B1: the “clipping of HV-ClpX by bound ClpP with ATP, rate of disappearance of HV-ClpX with and without TF (Fig. 3b)” value in experiment [1] was greater than 2 fold. B2: in experiment [2], the Kd amounted to 3.8 µM. For B3, in experiment [2], the Kd turned out to be 12.8 µM. As for B4, the Kd in experiment [2] amounted to 9.3 µM.
